From patent US20110269944

Assays:
[1] = tested on: HGF-G1 precursor protein (HGF-NG with Leu488-Arg489 at the C-terminus of the α chain converted into His-Tyr)
[2] = tested on: HGF-G2 precursor protein (HGF-NG with Arg489-Val490 converted into Tyr-His)
[3] = tested on: HGF-G3 precursor protein (HGF-NG with Lys-Thr-Lys-Gln-Leu-Arg at 484-489 converted into Pro-Gly-Ala-Ala-His-Tyr)
[4] = tested on: HGF-NG precursor protein (5-amino-acid-deleted-type/glycosylation-deficient human HGF with the natural α chain-β chain boundary sequence Arg489-Val490)
Chain of HGF-NG precursor protein (5-amino-acid-deleted-type/glycosylation-deficient human HGF with the natural α chain-β chain boundary sequence Arg489-Val490) (chain, as listed by the source, stated change not applied): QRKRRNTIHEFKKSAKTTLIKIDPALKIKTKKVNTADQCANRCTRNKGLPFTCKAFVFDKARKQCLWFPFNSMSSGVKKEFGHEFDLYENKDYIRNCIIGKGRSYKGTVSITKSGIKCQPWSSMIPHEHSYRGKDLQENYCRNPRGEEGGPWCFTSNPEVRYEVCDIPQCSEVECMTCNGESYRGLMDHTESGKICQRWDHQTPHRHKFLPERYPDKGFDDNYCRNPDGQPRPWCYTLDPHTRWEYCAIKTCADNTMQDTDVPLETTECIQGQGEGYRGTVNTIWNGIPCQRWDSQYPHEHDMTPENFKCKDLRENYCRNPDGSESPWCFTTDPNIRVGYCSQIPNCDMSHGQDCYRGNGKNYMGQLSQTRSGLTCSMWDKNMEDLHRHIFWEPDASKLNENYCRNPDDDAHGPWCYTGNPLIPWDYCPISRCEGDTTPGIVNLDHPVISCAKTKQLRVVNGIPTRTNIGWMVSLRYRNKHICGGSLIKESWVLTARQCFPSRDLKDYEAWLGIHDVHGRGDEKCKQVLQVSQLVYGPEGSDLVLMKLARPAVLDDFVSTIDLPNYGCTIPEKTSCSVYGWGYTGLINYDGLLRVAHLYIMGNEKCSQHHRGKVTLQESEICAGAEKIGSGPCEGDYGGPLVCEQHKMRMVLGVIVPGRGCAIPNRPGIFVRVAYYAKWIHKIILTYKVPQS

Chain of HGF-G2 precursor protein (HGF-NG with Arg489-Val490 converted into Tyr-His) (chain, as listed by the source): as the sequence (chain, as listed by the source, stated change not applied) above, with R458Y, V459H counted along it
Chain of HGF-G3 precursor protein (HGF-NG with Lys-Thr-Lys-Gln-Leu-Arg at 484-489 converted into Pro-Gly-Ala-Ala-His-Tyr) (chain, as listed by the source): as the sequence (chain, as listed by the source, stated change not applied) above, with K453P, T454G, K455A, Q456A, L457H, R458Y counted along it
Chain of HGF-G1 precursor protein (HGF-NG with Leu488-Arg489 at the C-terminus of the α chain converted into His-Tyr) (chain, as listed by the source): as the sequence (chain, as listed by the source, stated change not applied) above, with L457H, R458Y counted along it

Substance: Genenase I (made by New England Laboratory)
- cleavage of the single-stranded precursor into α and β chain bands (western blot, reducing SDS-PAGE) [1]: after Genenase I treatment, bands were detected at the same positions as those of the α chain and β chain of HGF-NG
- cleavage of the single-stranded precursor into α and β chain bands (western blot, reducing SDS-PAGE) [2]: after Genenase I treatment, bands were detected at the same positions as those of the α chain and β chain of HGF-NG
- cleavage of the single-stranded precursor into α and β chain bands (western blot, reducing SDS-PAGE) [3]: after Genenase I treatment, bands were detected at the same positions as those of the α chain and β chain of HGF-NG
- cleavage of the single-stranded precursor (western blot, reducing SDS-PAGE) [4]: HGF-NG precursor protein having a natural α chain-β chain boundary sequence was not cleaved by Genenase I
